Laboratory results reported in patent publication US20240270857A1 (CHIA TAI TIANQING PHARMACEUTICAL GROUP, published 2024).

T1: IL-36R naturally expressed on OVCAR8 cells and on normal human epidermal keratinocytes (NHK cells) (human, UniProt Q9HB29 20-575)
T1 sequence (looked up): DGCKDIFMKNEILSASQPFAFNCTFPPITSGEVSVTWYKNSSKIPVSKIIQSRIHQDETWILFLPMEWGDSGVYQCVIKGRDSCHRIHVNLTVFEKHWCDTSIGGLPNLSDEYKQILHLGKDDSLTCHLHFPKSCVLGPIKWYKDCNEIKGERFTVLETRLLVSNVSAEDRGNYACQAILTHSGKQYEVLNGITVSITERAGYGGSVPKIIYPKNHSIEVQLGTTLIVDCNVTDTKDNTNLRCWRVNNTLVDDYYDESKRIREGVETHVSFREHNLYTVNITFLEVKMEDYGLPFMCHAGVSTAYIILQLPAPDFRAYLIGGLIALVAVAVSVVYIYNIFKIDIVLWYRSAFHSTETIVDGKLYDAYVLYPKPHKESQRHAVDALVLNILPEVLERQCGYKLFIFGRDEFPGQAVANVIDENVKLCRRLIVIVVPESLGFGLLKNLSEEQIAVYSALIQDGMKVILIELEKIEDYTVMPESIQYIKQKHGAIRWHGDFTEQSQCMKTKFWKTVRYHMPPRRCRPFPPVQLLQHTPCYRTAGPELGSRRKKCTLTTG

T2: CynoIL36R-ECD mFc recombinant protein (cynomolgus monkey)
T2 construct: Made in ExpiCHO, purified on Protein A; also called cynomolgus IL-36R extracellular region with mouse antibody heavy chain Fc
T2 chain: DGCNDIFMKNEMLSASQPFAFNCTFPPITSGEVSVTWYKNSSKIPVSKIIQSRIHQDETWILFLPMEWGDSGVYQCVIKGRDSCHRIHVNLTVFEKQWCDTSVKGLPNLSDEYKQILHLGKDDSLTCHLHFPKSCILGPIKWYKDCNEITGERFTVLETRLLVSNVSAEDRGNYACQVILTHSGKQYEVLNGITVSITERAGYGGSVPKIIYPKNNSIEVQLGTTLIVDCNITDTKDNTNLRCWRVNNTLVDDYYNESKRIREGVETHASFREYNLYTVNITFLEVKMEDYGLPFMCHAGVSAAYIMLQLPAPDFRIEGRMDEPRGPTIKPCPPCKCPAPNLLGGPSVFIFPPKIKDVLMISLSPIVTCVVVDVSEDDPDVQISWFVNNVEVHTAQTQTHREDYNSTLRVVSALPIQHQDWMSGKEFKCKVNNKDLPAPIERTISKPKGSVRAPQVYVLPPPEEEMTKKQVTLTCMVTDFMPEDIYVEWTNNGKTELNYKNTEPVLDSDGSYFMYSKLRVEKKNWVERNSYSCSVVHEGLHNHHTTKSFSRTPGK

T3: human IL-36R overexpressed on 293T-hIL36R-NFκB cells (human, UniProt Q9HB29 20-575)
T3 sequence: T1 sequence (looked up)

B1: chimeric 72C1 antibody (antibody, human IgG4 S228P, kappa)
heavy: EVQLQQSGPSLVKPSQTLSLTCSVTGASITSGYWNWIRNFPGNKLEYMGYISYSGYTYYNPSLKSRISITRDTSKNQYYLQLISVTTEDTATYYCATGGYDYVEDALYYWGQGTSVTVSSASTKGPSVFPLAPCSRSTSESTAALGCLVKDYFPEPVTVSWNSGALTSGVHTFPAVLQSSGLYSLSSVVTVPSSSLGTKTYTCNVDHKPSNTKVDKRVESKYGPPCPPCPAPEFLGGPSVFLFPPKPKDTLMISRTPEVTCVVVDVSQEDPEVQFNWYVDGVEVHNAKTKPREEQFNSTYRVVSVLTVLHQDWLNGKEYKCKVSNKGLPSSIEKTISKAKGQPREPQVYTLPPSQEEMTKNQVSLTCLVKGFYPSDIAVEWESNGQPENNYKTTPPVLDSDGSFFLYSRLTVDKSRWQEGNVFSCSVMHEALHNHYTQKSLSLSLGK
light: EILLTQSPAIMSATLGEKVTMSCRASSNVRYMYWYQLKSGASPKLWIYLTSNLASGVPARFSGSGSGTSYSLTISSVEAEDAATYFCQQFTTSPYTFGGGTKLEIKRTVAAPSVFIFPPSDEQLKSGTASVVCLLNNFYPREAKVQWKVDNALQSGNSQESVTEQDSKDSTYSLSSTLTLSKADYEKHKVYACEVTHQGLSSPVTKSFNRGEC
notes: Mouse variable regions on human IgG4 / kappa; also called xi72C1
B2: BI655130 (antibody, human IgG1, kappa, L234A L235A)
heavy: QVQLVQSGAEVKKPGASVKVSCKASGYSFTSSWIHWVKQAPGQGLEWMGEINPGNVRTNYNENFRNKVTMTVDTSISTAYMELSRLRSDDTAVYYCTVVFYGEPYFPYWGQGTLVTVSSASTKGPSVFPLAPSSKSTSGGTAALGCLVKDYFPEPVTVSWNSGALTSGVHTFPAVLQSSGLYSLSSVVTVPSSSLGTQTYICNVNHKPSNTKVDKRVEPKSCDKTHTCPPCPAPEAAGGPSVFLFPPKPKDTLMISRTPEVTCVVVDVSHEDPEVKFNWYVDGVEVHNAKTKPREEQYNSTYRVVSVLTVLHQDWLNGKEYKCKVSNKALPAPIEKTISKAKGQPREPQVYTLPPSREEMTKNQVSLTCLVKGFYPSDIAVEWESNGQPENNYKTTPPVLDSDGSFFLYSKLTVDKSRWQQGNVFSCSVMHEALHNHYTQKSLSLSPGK
light: QIVLTQSPGTLSLSPGERATMTCTASSSVSSSYFHWYQQKPGQAPRLWIYRTSRLASGVPDRFSGSGSGTDFTLTISRLEPEDAATYYCHQFHRSPLTFGAGTKLEIKRTVAAPSVFIFPPSDEQLKSGTASVVCLLNNFYPREAKVQWKVDNALQSGNSQESVTEQDSKDSTYSLSSTLTLSKADYEKHKVYACEVTHQGLSSPVTKSFNRGEC
notes: also called Spesolimab
B3: chimeric 84C4 antibody (antibody, human IgG4 S228P, kappa)
heavy: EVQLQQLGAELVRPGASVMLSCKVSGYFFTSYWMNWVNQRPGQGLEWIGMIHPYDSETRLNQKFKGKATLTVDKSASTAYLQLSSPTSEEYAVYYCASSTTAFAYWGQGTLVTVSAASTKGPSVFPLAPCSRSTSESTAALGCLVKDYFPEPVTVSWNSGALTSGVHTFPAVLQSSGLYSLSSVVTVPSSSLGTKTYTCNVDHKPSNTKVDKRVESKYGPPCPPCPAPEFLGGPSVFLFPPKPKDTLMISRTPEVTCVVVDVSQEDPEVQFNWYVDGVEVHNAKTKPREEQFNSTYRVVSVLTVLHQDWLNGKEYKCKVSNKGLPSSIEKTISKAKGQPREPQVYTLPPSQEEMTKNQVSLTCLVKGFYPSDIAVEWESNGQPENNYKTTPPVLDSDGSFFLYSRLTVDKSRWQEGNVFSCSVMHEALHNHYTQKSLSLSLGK
light: DILMTQSPSSLSASLGERVSLTCRASQDIGNALNWLQQAPDGTIKRLIYATSSLDPGVPKRFSGSRSGSDYSLTISSLASEDFVYYYCLQYASSPYTFGGGTKLEIKRTVAAPSVFIFPPSDEQLKSGTASVVCLLNNFYPREAKVQWKVDNALQSGNSQESVTEQDSKDSTYSLSSTLTLSKADYEKHKVYACEVTHQGLSSPVTKSFNRGEC
notes: Mouse variable regions on human IgG4 / kappa; also called xi84C4

Key:
[1] = molecular target: T1, IL-36R naturally expressed on OVCAR8 …; experiment: cell-based or functional assay
[2] = molecular target: T1, IL-36R naturally expressed on OVCAR8 …; experiment: cell-based or functional assay; remark: listed apart in the source
[3] = molecular target: T2, CynoIL36R-ECD mFc recombinant protein; experiment: ELISA, plate coated with CynoIL36R-ECD mFc, HRP-protein A/G, OD450
Description: The binding activity of anti-IL-36R antibodies to IL-36R was analyzed by ELISA using human IL-1Rrp2/IL-1R6 protein, His Tag (ACROBiosystems, IL2-H52H6) and CynoIL36R-ECD mFc (for detection of chimeric and humanized antibodies), and hIL36R-ECD hFc and CynoIL36R-ECD hFc protein (for detection of hybridoma antibodies) as antigens. A 96-well plate (Costar, 9018) was coated with 2 μg/mL antigen at 100 μL/well and incubated overnight at 4° C. After the 96-well plate was washed with a washing buffer (PBS containing 0.05% v/v Tween 20), a blocking buffer (PBS containing 2% bovine serum albumin) was added for blocking at 37° C. for 2 h. After the 96-well plate was washed with the washing buffer, 100 μL of the gradient diluted anti-IL-36R antibody of the present disclosure or the reference antibody BI655130 (the initial concentration of the antibody was 66 nM, 4-fold gradient dilution) was added to each well, and the plate was incubated at room temperature for 1 h. After the 96-well plate was washed with the washing buffer, 100 μL of horseradish peroxidase-conjugated recombinant protein A/G (TheroScientific, 32490) was added to each well, and the plate was incubated at room temperature for 1 h. After the 96-well plate was washed with the washing buffer, 100 μL of a TMB solution (Thermo, 00-4201-56) was added to each well, and the plate was incubated at room temperature for 2 min. Finally, 100 μL of a stop solution (2 N H₂SO₄) was added to each well to stop the reaction. Absorbance was read at 450 nm using a microplate reader (PE, Envision), the resulting data was analyzed using GraphPad Prism, and EC₅₀ was calculated. Binding EC₅₀ of the chimeric anti-IL-36R antibodies to hIL-36R in an ELISA assay is shown in FIG. 1. and binding EC₅₀ of the chimeric anti-IL-36R antibodies to CynoIL-36R in an ELISA assay is shown in FIG. 2. The binding of BI655130 is shown as a control, and the binding of IgG4 is shown as a negative control.

[4] = molecular target: T3, human IL-36R overexpressed on …; experiment: cell-based or functional assay
[5] = molecular target: T3, human IL-36R overexpressed on …; experiment: cell-based or functional assay; remark: listed apart in the source
[6] = molecular target: T3, human IL-36R overexpressed on …; experiment: cell-based or functional assay; remark: listed apart in the source

Binder	IC50; IL-8 production of NHK cells stimulated with hIL36β, inhibition rate % [1]	IC50; IL-8 production of NHK cells stimulated with hIL36α, inhibition rate % [2]	EC50 [3]	IC50; NFκB-luciferase reporter in 293T-hIL36R-NFκB cells stimulated with hIL36γ, inhibition rate % [4]	IC50; NFκB-luciferase reporter in 293T-hIL36R-NFκB cells stimulated with hIL36β, inhibition rate % [5]	IC50; NFκB-luciferase reporter in 293T-hIL36R-NFκB cells stimulated with hIL36α, inhibition rate % [6]
B1	0.474 nM	0.159 nM	3.02 nM	10.5 nM	7.51 nM	
B2	0.248 nM	0.0741 nM	1.89 nM	4.74 nM	5.02 nM	6.09 nM
B3	0.848 nM		21.9 nM			3.25 nM
